Here are results for 125 sequences from the supplement of paper PMC9112550, “Optimization of the antimicrobial peptide Bac7 by deep mutational scanning” (BMC Biology, 2022).
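Note: peptides expressed intracellularly from a pBAD plasmid library in pooled LB shake-flask culture, induced with 0.3% L-arabinose, DNA abundance read by NGS, three biological replicates, DESeq2 with apeglm shrinkage.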

In the series the test system is Escherichia coli TOP10. The series can be described thus: shrunken log2 fold change of peptide-encoding DNA abundance (4.5 h post-induction vs induction); higher = less antimicrobial activity (less host growth inhibition). The following applies: time post-induction: 4.5 h; library: site-saturation at positions 5, 18, 19, 20.
Turning to RRIRERPPRLPRPRPRPNGTPRP, the “shrunken log2 fold change” value was -0.0811.

As for RRIRRRPPRLPRPRPRPRKVPRP, the “shrunken log2 fold change” value is 0.602.

For RRIRQRPPRLPRPRPRPHVYPRP, the “shrunken log2 fold change” value was -0.414.

As for RRIRYRPPRLPRPRPRPGYEPRP, the “shrunken log2 fold change” value worked out at 0.026.

As to RRIRIRPPRLPRPRPRPQPTPRP, the “shrunken log2 fold change” value came out at 0.115.

Take RRIRYRPPRLPRPRPRPVMKPRP: the “shrunken log2 fold change” value was -0.131.

Regarding RRIRFRPPRLPRPRPRPLVFPRP, the “shrunken log2 fold change” value was -0.204.

Turning to RRIRKRPPRLPRPRPRPLSAPRP, the “shrunken log2 fold change” value was 0.402.

Take RRIRDRPPRLPRPRPRPRMAPRP: the “shrunken log2 fold change” value was found to be 0.465.

In the case of RRIRMRPPRLPRPRPRPWTPPRP, the “shrunken log2 fold change” value is 0.28.

For RRIRQRPPRLPRPRPRPMWHPRP, the “shrunken log2 fold change” value was -0.18.

Consider RRIRERPPRLPRPRPRPCRCPRP, for which the “shrunken log2 fold change” value was determined as 0.00968.

Regarding RRIRFRPPRLPRPRPRPFMMPRP, the “shrunken log2 fold change” value was -0.693.

RRIRLRPPRLPRPRPRPETAPRP: the “shrunken log2 fold change” value stood at 0.325.

Take RRIRMRPPRLPRPRPRPKPLPRP: the “shrunken log2 fold change” value turned out to be 0.603.

RRIRYRPPRLPRPRPRPKEFPRP: the “shrunken log2 fold change” value was -0.00973.

With RRIRPRPPRLPRPRPRPQIMPRP, the “shrunken log2 fold change” value was -0.265.

Turning to RRIRWRPPRLPRPRPRPELDPRP, the “shrunken log2 fold change” value came to 1.82.

Consider RRIRWRPPRLPRPRPRPGIRPRP, for which the “shrunken log2 fold change” value was 0.29.

RRIRFRPPRLPRPRPRPCTTPRP: the “shrunken log2 fold change” value is -0.381.

Regarding RRIRSRPPRLPRPRPRPEQFPRP, the “shrunken log2 fold change” value amounted to 0.0895.

Turning to RRIRLRPPRLPRPRPRPSWTPRP, the “shrunken log2 fold change” value is -0.0555.

For RRIRNRPPRLPRPRPRPSNAPRP, the “shrunken log2 fold change” value was -0.343.

Consider RRIRLRPPRLPRPRPRPPRWPRP, for which the “shrunken log2 fold change” value is 0.408.

In the case of RRIRARPPRLPRPRPRPEIFPRP, the “shrunken log2 fold change” value stood at 0.273.

Turning to RRIRVRPPRLPRPRPRPKFSPRP, the “shrunken log2 fold change” value came out at 0.0178.

Regarding RRIRERPPRLPRPRPRPIEPPRP, the “shrunken log2 fold change” value is -0.26.

As to RRIRFRPPRLPRPRPRPSHRPRP, the “shrunken log2 fold change” value is -0.214.

RRIRARPPRLPRPRPRPLWEPRP: the “shrunken log2 fold change” value came out at 0.745.

Consider RRIRDRPPRLPRPRPRPLLCPRP, for which the “shrunken log2 fold change” value is 0.503.

As to RRIRERPPRLPRPRPRPGANPRP, the “shrunken log2 fold change” value turned out to be 0.0574.

Regarding RRIRVRPPRLPRPRPRPIPEPRP, the “shrunken log2 fold change” value is -0.0974.

For RRIRCRPPRLPRPRPRPTMMPRP, the “shrunken log2 fold change” value was -0.0339.

As to RRIRKRPPRLPRPRPRPCSAPRP, the “shrunken log2 fold change” value was -0.0728.

RRIRLRPPRLPRPRPRPAAYPRP: the “shrunken log2 fold change” value was -0.15.

As for RRIRIRPPRLPRPRPRPLGNPRP, the “shrunken log2 fold change” value is -0.19.

As to RRIRDRPPRLPRPRPRPQRPPRP, the “shrunken log2 fold change” value was found to be 0.0335.

As to RRIRIRPPRLPRPRPRPFTQPRP, the “shrunken log2 fold change” value is -0.71.

Consider RRIRRRPPRLPRPRPRPEFCPRP, for which the “shrunken log2 fold change” value is 0.579.

Turning to RRIRHRPPRLPRPRPRPCRIPRP, the “shrunken log2 fold change” value was -0.0589.

Regarding RRIRIRPPRLPRPRPRPLPQPRP, the “shrunken log2 fold change” value was -0.247.

Regarding RRIRVRPPRLPRPRPRPHSVPRP, the “shrunken log2 fold change” value was -0.177.

Turning to RRIRWRPPRLPRPRPRPCPDPRP, the “shrunken log2 fold change” value was found to be 0.111.

Consider RRIRLRPPRLPRPRPRPLTEPRP, for which the “shrunken log2 fold change” value came to 0.098.

Turning to RRIRIRPPRLPRPRPRPHMYPRP, the “shrunken log2 fold change” value was -0.485.

Take RRIRKRPPRLPRPRPRPSVIPRP: the “shrunken log2 fold change” value was -0.0922.

As for RRIRPRPPRLPRPRPRPIPWPRP, the “shrunken log2 fold change” value is 0.00327.

On to RRIRMRPPRLPRPRPRPHNWPRP, for which the “shrunken log2 fold change” value stood at 0.249.

As to RRIRMRPPRLPRPRPRPMKPPRP, the “shrunken log2 fold change” value was -0.00107.

With RRIRMRPPRLPRPRPRPACAPRP, the “shrunken log2 fold change” value stood at 0.837.

As to RRIRKRPPRLPRPRPRPHYHPRP, the “shrunken log2 fold change” value was -0.145.

As for RRIRLRPPRLPRPRPRPGNNPRP, the “shrunken log2 fold change” value is -0.58.

For RRIRDRPPRLPRPRPRPLNCPRP, the “shrunken log2 fold change” value was -0.0225.

Take RRIRGRPPRLPRPRPRPRLGPRP: the “shrunken log2 fold change” value was 0.799.

With RRIRHRPPRLPRPRPRPGAFPRP, the “shrunken log2 fold change” value came out at 0.175.

In the case of RRIRLRPPRLPRPRPRPGDDPRP, the “shrunken log2 fold change” value came out at 0.431.

As for RRIRKRPPRLPRPRPRPHDWPRP, the “shrunken log2 fold change” value worked out at 0.31.

Take RRIRLRPPRLPRPRPRPMSYPRP: the “shrunken log2 fold change” value is -0.25.

Turning to RRIRMRPPRLPRPRPRPKRVPRP, the “shrunken log2 fold change” value came out at 0.0291.

Consider RRIRPRPPRLPRPRPRPEFLPRP, for which the “shrunken log2 fold change” value is -0.101.

For RRIRHRPPRLPRPRPRPSATPRP, the “shrunken log2 fold change” value was -0.00655.

Consider RRIRPRPPRLPRPRPRPDAYPRP, for which the “shrunken log2 fold change” value was -0.334.

Take RRIRARPPRLPRPRPRPFKFPRP: the “shrunken log2 fold change” value stood at 0.0771.

In the case of RRIRMRPPRLPRPRPRPVRNPRP, the “shrunken log2 fold change” value amounted to 0.0163.

Consider RRIRERPPRLPRPRPRPDSDPRP, for which the “shrunken log2 fold change” value is -0.0703.

With RRIRVRPPRLPRPRPRPCWKPRP, the “shrunken log2 fold change” value is -0.00912.

For the sequence RRIRERPPRLPRPRPRPFRAPRP, the “shrunken log2 fold change” value amounted to 0.0204.

Turning to RRIRDRPPRLPRPRPRPACIPRP, the “shrunken log2 fold change” value worked out at 0.194.

In the case of RRIRCRPPRLPRPRPRPWHHPRP, the “shrunken log2 fold change” value was -1.14.

As to RRIRLRPPRLPRPRPRPCPLPRP, the “shrunken log2 fold change” value was -0.333.

Consider RRIRFRPPRLPRPRPRPDYRPRP, for which the “shrunken log2 fold change” value was -0.0359.

Turning to RRIRNRPPRLPRPRPRPNFMPRP, the “shrunken log2 fold change” value is -0.269.

As to RRIRNRPPRLPRPRPRPFESPRP, the “shrunken log2 fold change” value came out at 0.00843.

On to RRIRLRPPRLPRPRPRPHDMPRP, for which the “shrunken log2 fold change” value was -0.117.

As to RRIRHRPPRLPRPRPRPKPVPRP, the “shrunken log2 fold change” value worked out at 0.239.

For the sequence RRIRCRPPRLPRPRPRPWEEPRP, the “shrunken log2 fold change” value worked out at 0.0492.

Turning to RRIRQRPPRLPRPRPRPQRSPRP, the “shrunken log2 fold change” value is 0.0623.

For the sequence RRIRWRPPRLPRPRPRPQHVPRP, the “shrunken log2 fold change” value was -0.274.

With RRIRYRPPRLPRPRPRPRSYPRP, the “shrunken log2 fold change” value is -0.879.

Regarding RRIRPRPPRLPRPRPRPYCWPRP, the “shrunken log2 fold change” value is -0.473.

For RRIRVRPPRLPRPRPRPKHPPRP, the “shrunken log2 fold change” value is 0.28.

Consider RRIRVRPPRLPRPRPRPIYLPRP, for which the “shrunken log2 fold change” value was -0.543.

In the case of RRIRERPPRLPRPRPRPKRAPRP, the “shrunken log2 fold change” value is -0.145.

Turning to RRIRTRPPRLPRPRPRPECDPRP, the “shrunken log2 fold change” value is -0.134.

As to RRIRKRPPRLPRPRPRPMSHPRP, the “shrunken log2 fold change” value was -0.0712.

In the case of RRIRNRPPRLPRPRPRPIQCPRP, the “shrunken log2 fold change” value is -0.01.

As for RRIRHRPPRLPRPRPRPWHIPRP, the “shrunken log2 fold change” value is -0.864.

As for RRIRARPPRLPRPRPRPHREPRP, the “shrunken log2 fold change” value was found to be 0.0826.

Regarding RRIRIRPPRLPRPRPRPHAKPRP, the “shrunken log2 fold change” value is -0.348.

With RRIRVRPPRLPRPRPRPTRIPRP, the “shrunken log2 fold change” value turned out to be 0.108.

In the case of RRIRCRPPRLPRPRPRPDAFPRP, the “shrunken log2 fold change” value was 0.467.

On to RRIRCRPPRLPRPRPRPFNGPRP, for which the “shrunken log2 fold change” value was -0.148.

As to RRIRFRPPRLPRPRPRPACNPRP, the “shrunken log2 fold change” value was -0.26.

In the case of RRIRFRPPRLPRPRPRPEWFPRP, the “shrunken log2 fold change” value was found to be 0.0431.

In the case of RRIRFRPPRLPRPRPRPISPPRP, the “shrunken log2 fold change” value was -0.211.

Take RRIRGRPPRLPRPRPRPYKKPRP: the “shrunken log2 fold change” value is -0.186.

Take RRIRMRPPRLPRPRPRPTGFPRP: the “shrunken log2 fold change” value was found to be 1.12.

In the case of RRIRHRPPRLPRPRPRPVWLPRP, the “shrunken log2 fold change” value was -0.0368.

Consider RRIRIRPPRLPRPRPRPVSKPRP, for which the “shrunken log2 fold change” value is -0.0544.

For the sequence RRIRMRPPRLPRPRPRPCPKPRP, the “shrunken log2 fold change” value was -0.214.

Consider RRIRDRPPRLPRPRPRPYTAPRP, for which the “shrunken log2 fold change” value came out at 0.0362.

RRIRGRPPRLPRPRPRPIAYPRP: the “shrunken log2 fold change” value came to 0.117.

Consider RRIRARPPRLPRPRPRPIIDPRP, for which the “shrunken log2 fold change” value was 0.216.

With RRIRNRPPRLPRPRPRPAFEPRP, the “shrunken log2 fold change” value stood at 0.0155.

As to RRIRWRPPRLPRPRPRPTKNPRP, the “shrunken log2 fold change” value stood at 0.159.

In the case of RRIRKRPPRLPRPRPRPRQIPRP, the “shrunken log2 fold change” value came to 0.298.

Turning to RRIRTRPPRLPRPRPRPNIWPRP, the “shrunken log2 fold change” value was 0.682.

For RRIRARPPRLPRPRPRPYGSPRP, the “shrunken log2 fold change” value is -0.0423.

As to RRIRYRPPRLPRPRPRPNLTPRP, the “shrunken log2 fold change” value was -0.372.

RRIRWRPPRLPRPRPRPHDQPRP: the “shrunken log2 fold change” value is 0.36.

In the case of RRIRLRPPRLPRPRPRPLAWPRP, the “shrunken log2 fold change” value is 0.32.

On to RRIRHRPPRLPRPRPRPGTHPRP, for which the “shrunken log2 fold change” value stood at 0.0646.

RRIRSRPPRLPRPRPRPWPMPRP: the “shrunken log2 fold change” value was -0.111.

Regarding RRIRVRPPRLPRPRPRPTGDPRP, the “shrunken log2 fold change” value was -0.0504.

Turning to RRIRGRPPRLPRPRPRPDASPRP, the “shrunken log2 fold change” value was determined as 1.34.

Consider RRIRYRPPRLPRPRPRPTIFPRP, for which the “shrunken log2 fold change” value is -0.412.

As to RRIRYRPPRLPRPRPRPIIVPRP, the “shrunken log2 fold change” value was -0.249.

Consider RRIRIRPPRLPRPRPRPVQFPRP, for which the “shrunken log2 fold change” value is -0.303.

For the sequence RRIRCRPPRLPRPRPRPYICPRP, the “shrunken log2 fold change” value is -0.419.

Take RRIRRRPPRLPRPRPRPWQYPRP: the “shrunken log2 fold change” value amounted to 0.0419.

In the case of RRIRFRPPRLPRPRPRPYGWPRP, the “shrunken log2 fold change” value was -0.0451.

For RRIRWRPPRLPRPRPRPQGYPRP, the “shrunken log2 fold change” value was -0.0909.

Turning to RRIRERPPRLPRPRPRPQHLPRP, the “shrunken log2 fold change” value is 0.0167.

For the sequence RRIRTRPPRLPRPRPRPECNPRP, the “shrunken log2 fold change” value was 0.0232.

Consider RRIRNRPPRLPRPRPRPYSHPRP, for which the “shrunken log2 fold change” value was -0.317.
